As usually defined, the pKd is −log10 of the Kd, conventionally taken in molar units. A high value points to a small Kd. Usually pIC50 stands for −log10 of the IC50, conventionally taken in molar units.

The text below walks through data of paper doi:10.1101/2024.04.26.591398.

pIC50, pKd: −log10 of the molar value.

The assay concerns the target T1, FITC-casein.
T1 sequence (P02666 16-224, species assumed, looked up): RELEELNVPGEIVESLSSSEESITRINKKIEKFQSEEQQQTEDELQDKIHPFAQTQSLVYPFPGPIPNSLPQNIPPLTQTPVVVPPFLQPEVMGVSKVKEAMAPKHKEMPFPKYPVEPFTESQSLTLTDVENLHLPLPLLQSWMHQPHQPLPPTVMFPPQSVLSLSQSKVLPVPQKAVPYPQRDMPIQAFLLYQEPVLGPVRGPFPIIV
In words: fluorescence polarisation. A general note: In fluorescence polarisation assays a small probe gives low polarisation when free and higher when bound to something large.

Chain of Hsp104 (P31539 whole entry): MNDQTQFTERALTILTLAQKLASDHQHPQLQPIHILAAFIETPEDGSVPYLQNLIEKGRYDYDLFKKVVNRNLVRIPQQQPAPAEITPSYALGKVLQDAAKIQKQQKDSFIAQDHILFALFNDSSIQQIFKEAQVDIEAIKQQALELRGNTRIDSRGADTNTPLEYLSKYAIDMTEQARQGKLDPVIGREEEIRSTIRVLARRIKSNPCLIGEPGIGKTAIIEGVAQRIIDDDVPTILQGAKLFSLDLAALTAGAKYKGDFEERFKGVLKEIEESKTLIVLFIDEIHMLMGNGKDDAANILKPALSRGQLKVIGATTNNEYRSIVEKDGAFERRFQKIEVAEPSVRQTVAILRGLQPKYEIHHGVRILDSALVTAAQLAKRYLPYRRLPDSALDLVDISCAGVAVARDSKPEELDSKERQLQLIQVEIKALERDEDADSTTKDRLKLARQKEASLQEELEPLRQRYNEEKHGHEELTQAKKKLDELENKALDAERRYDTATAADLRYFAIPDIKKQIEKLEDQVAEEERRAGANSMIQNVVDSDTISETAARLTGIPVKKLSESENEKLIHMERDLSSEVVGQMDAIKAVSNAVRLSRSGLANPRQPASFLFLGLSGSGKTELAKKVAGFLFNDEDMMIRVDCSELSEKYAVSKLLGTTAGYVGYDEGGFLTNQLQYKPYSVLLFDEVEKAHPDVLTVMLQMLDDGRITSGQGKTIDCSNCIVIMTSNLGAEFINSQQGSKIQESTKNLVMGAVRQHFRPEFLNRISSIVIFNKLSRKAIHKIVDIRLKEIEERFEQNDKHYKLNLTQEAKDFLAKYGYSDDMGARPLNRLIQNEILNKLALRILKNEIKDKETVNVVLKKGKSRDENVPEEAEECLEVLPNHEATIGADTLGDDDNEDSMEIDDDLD
Chain of Ydj1 (P25491 whole entry): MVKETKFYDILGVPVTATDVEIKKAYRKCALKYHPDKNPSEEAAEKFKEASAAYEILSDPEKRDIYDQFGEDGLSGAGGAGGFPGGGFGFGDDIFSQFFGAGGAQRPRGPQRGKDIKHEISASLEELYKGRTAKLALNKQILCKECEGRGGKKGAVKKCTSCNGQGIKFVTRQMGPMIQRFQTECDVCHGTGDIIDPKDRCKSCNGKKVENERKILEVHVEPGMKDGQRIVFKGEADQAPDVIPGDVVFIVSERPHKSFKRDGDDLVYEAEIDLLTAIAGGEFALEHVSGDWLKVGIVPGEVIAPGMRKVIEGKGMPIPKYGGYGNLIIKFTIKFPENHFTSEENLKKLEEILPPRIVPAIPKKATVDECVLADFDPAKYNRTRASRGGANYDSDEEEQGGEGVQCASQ

Substance “Hsp104 (from UniProt P31539 1-908) (natural protein)” gave a pKd of 6.70.

In the case of “Ydj1 (from UniProt P25491 1-409) (natural protein)”, the negative-log IC50 (pIC50) is 4.40 to 4.70.
